According to patent publication US20120107330A1 (published 2012):
Blank lines part the entries; values can stand above or below the binder they belong to.

Key:
[1] = target: T1, human TNFR1 on MRC-5 cells (human, UniProt P19438 30-455); assay: cell-based or functional assay
T1 sequence (looked up): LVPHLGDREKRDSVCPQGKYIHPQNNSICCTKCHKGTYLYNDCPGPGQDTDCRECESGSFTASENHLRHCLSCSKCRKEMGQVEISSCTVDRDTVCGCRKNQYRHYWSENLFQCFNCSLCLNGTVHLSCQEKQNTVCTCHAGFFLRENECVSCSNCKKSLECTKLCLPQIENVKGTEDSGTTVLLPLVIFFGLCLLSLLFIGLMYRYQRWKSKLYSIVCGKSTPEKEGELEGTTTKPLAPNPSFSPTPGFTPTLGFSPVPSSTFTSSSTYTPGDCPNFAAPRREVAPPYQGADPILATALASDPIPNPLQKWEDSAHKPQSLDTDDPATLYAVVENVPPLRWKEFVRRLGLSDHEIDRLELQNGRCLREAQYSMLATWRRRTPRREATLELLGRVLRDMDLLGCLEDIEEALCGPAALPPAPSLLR

[2] = target: T2, mouse serum albumin (MSA, Sigma-Aldrich) (mouse, UniProt P07724 25-608); assay: BIAcore, MSA; DMS0169 (DOM7h-11-12 AlbudAb)
T2 construct: also called mouse albumin

[3] = target: T2, mouse serum albumin (MSA, Sigma-Aldrich); assay: BIAcore, MSA; DMS0168 (DOM7m-16 AlbudAb)
[4] = target: T3, human serum albumin (HSA, Sigma-Aldrich) (human, UniProt P02768 25-609); assay: BIAcore, HSA on CM5 chip
T3 construct: also called human albumin
Protocol: (§1) FIG. 23. BIAcore analysis for binding of DOM0100-AlbudAb in-line fusions to human serum albumin (HSA). HSA (Sigma-Aldrich) was coated on a BIAcore CM5 chip using EDC/NHS chemistry according to manufacturer's instructions. Subsequently, the DMS constructs, each consisting N-terminally to C-terminally of an anti-TNFR1 dAb-Linker-AlbudAb and identified in Table 6, were injected at 1 μM over the HSA surface and binding was monitored. […] The corresponding BIAcore trace for each DMS clone is indicated with an arrow.

rat albumin = target: T4, rat albumin (rat, UniProt P02770 25-608); assay: BIAcore; rat albumin
T4 construct: also called rat serum albumin

[5] = target: T2, mouse serum albumin (MSA, Sigma-Aldrich); assay: BIAcore, MSA on CM5 chip
Protocol: as §1, with “22.” for “23.”, “mouse” for “human”, “(MSA). MSA” for “(HSA). HSA”, “MSA” for “HSA”
After expression and purification, all constructs were tested on the BIAcore for binding to both mouse and human serum albumin. The off-rates were determined and used to discriminate between the AlbudAbs for their suitability in prolonging the half-life of the fusion molecule. Whereas the linker had little influence on the affinity of the AlbudAb for albumin, a significant difference existed between the dAbs and their albumin affinity. The best AlbudAb for mouse binding was DOM7h-11-15 followed by DOM7m-16 and DOM7h-11-12 (FIG. 22).

[6] = target: T2, mouse serum albumin (MSA, Sigma-Aldrich); assay: BIAcore; mouse albumin

T3 sequence (P02768 25-609 limits assumed): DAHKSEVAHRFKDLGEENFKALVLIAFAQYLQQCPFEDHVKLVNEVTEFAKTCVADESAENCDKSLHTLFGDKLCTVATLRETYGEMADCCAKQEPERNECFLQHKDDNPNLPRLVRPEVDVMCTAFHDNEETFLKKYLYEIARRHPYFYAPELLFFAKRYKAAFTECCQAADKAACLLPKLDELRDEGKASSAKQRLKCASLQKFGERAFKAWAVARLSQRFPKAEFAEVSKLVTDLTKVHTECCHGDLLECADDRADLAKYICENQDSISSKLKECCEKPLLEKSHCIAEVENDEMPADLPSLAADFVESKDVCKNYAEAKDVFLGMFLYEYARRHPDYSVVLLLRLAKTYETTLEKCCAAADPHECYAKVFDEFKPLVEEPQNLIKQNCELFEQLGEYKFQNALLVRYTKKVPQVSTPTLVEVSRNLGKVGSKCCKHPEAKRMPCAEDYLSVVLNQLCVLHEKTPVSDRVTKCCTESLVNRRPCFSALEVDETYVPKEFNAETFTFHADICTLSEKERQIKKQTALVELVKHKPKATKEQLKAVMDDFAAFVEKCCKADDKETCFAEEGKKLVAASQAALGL
T4 sequence (P02770 25-608 limits assumed): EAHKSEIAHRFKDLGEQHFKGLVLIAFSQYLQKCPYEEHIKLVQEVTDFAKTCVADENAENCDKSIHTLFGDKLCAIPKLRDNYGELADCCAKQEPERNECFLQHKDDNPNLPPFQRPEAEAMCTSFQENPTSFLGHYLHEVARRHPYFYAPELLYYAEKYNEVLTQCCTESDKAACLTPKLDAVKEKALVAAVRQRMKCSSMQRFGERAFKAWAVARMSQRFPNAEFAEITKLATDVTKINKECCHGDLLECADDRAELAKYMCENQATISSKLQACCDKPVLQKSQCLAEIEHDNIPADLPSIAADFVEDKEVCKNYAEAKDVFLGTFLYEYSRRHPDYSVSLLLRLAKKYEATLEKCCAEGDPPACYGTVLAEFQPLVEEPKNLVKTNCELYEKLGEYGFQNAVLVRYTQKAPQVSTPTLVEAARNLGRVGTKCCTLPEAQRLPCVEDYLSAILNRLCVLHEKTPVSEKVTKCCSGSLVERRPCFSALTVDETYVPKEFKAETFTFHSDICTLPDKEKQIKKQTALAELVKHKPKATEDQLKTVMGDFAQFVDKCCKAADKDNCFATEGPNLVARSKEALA

- ND50 (MRC5) [1]: 2.7 nM
- Kd [2]: ~200 nM
B1: DMS0169 (bispecific antibody)
chain: EVQLLESGGGLVQPGGSLRLSCAASGFTFVKYSMGWVRQAPGKGLEWVSQISNTADRTYYAHSVKGRFTISRDNSKNTLYLQMNSLRAEDTAVYYCAIYTGRWVPFEYWGQGTLVTVSSASTSGPSDIQMTQSPSSLSASVGDRVTITCRASRPIGTMLSWYQQKPGKAPKLLILFGSRLQSGVPSRFSGSGSGTDFTLTISSLQPEDFATYYCAQAGTHPTTFGQGTKVEIKRAAAEQKLISEEDLN
notes: anti-TNFR1 dAb / AlbudAb in-line fusion

- ND50 (MRC5) [1]: 16 nM
- Kd [3]: ~200 nM
B2: DMS0168 (bispecific antibody)
chain: EVQLLESGGGLVQPGGSLRLSCAASGFTFVKYSMGWVRQAPGKGLEWVSQISNTADRTYYAHSVKGRFTISRDNSKNTLYLQMNSLRAEDTAVYYCAIYTGRWVPFEYWGQGTLVTVSSASTSGPSDIQMTQSPSSLSASVGDRVTITCRASQSIIKHLKWYQQKPGKAPKLLIYGASRLQSGVPSRFSGSGSGTDFTLTISSLQPEDFATYYCQQGARWPQTFGQGTKVEIKRAAAEQKLISEEDLN
notes: as for B1

- koff [4]: 0.17 s⁻¹
- ND50 (MRC5) [1]: 6 nM
- Kd (rat albumin): > 1000 nM
- koff [5]: 0.75 s⁻¹
- Kd [6]: > 1000 nM
B3: DMS0182 (bispecific antibody)
chain: EVQLLESGGGLVQPGGSLRLSCAASGFTFVKYSMGWVRQAPGKGPEWVSQISNTGDRTYYADSVKGRFTISRDNSKNTLYLQMNSLRAEDTAVYYCAIYTGRWEPFDYWGQGTLVTVSSASTDIQMTQSPSSLSASVGDRVTITCRASRPIGTTLSWYQQKPGKAPKLLIWFGSRLQSGVPSRFSGSGSGTDFTLTISSLQPEDFATYYCAQAGTHPTTFGQGTKVEIKRAAAEQKLISEEDLN
notes: in-line fusion of an anti-TNFR1 dAb and an anti-serum albumin dAb (AlbudAb)
